Paper PMC8263624, “Asymmetric reconstruction of mammalian reovirus reveals interactions among RNA, transcriptional factor µ2 and capsid proteins” (Nature Communications, 2021)

B1: receptor binding protein σ1 (natural protein)
chain: MDPRLREEVVRLIIALTSDNGASLSKGLESRVSALEKTSQIHSDTILRITQGLDDANKRIIALEQSRDDLVASVSDAQLAISRLESSIGALQTVVNGLDSSVTQLGARVGQLETGLAELRVDHDNLVARVDTAERNIGSLTTELSTLTLRVTSIQADFESRISTLERTAVTSAGAPLSIRNNRMTMGLNDGLTLSGNNLAIRLPGNTGLNIQNGGLQFRFNTDQFQIVNNNLTLKTTVFDSINSRIGATEQSYVASAVTPLRLNSSTKVLDMLIDSSTLEINSSGQLTVRSTSPNLRYPIADVSGGIGMSPNYRFRQSMWIGIVSYSGSGLNWRVQVNSDIFIVDDYIHICLPAFDGFSIADGGDLSLNFVTGLLPPLLTGDTEPAFHNDVVTYGAQTVAIGLSSGGAPQYMSKNLWVEQWQDGVLRLRVEGGGSITHSNSKWPAMTVSYPRSFT
notes: 12 trimers in each particle; Seen only in the sub-particle reconstruction; also called σ1 trimer; σ1 spike
B2: membrane penetration protein µ1 (natural protein)
chain 1: MGNASSIVQTINVTGDGNVFKPSAETSSTAVPSLSLSPGMLN
chain 2: PGGVPWIAVGDETSVTSPGALRRMTSKDIPETAIINTDNSSGAVPSESALVPYIDEPLVVVTEHAITNFTKAEMALEFNREFLDKMRVLSVSPKYSDLLTYVDCYVGVSARQALNNFQKQVPVITPTRQTMYVDSIQAALKALEKWEIDLRVAQTLLPTNVPIGEVSCPMQSVVKLLDDQLPDDSLIRRYPKEAAVALAKRNGGIQWMDVSEGTVMNEAVNAVAASALAPSASAPPLEEKSKLTEQAMDLVTAAEPEIIASLAPVPAPVFAIPPKPADYNVRTLRIDEATWLRMIPKSMNTPFQIQVTDNTGTNWHLNLRGGTRVVNLDQIAPMRFVLDLGGKSYKETSWDPNGKKVGFIVFQSKIPFELWTAASQIGQATVVNYVQLYAEDSSFTAQSIIATTSLAYNYEPEQLNKTDPEMNYYLLATFIDSAAITPTNMTQPDVWDALLTMSPLSAGEVTVKGAVVSEVVPADLIGSYTPESLNASLPNDAARCMIDRASKIAEAIKIDDDAGPDEYSPNSVPIQGQLAISQLETGYGVRIFNPKGILSKIASRAMQAFIGDPSTIITQAAPVLSDKNNWIALAQGVKTSLRTKSLSAGVKTAVSKLSSSESIQNWTQGFLDKVSAHFPAPKPDCPTSGDSGESSNRRVKRDSYAGVVKRGYTR
modifications: N-myristoyl group at the amino terminus
notes: N-terminal (N-myristoyl) fragment of penetration protein μ1 of mammalian reovirus serotype Dearing 3, up to the autolytic cleavage site between N42 and P43; penetration protein μ1 of mammalian reovirus serotype Dearing 3 from the autolytic cleavage site between N42 and P43 onwards; 600 copies (200 trimers) in each particle; also called μ1; penetration protein μ1; copies: 3 + 3
B3: mRNA capping protein λ2 (enzyme)
chain: MANVWGVRLADSLSSPTIETRTRQYTLHDLCSDLDANPGREPWKPLRNQRTNNIVAVQLFRPLQGLVLDTQLYGFPGAFDDWERFMREKLRVLKYEVLRIYPISNYSNEHVNVFVANALVGAFLSNQAFYDLLPLLIINDTMIGDLLGTGASLSQFFQSHGDVLEVAAGRKYLQMENYSNDDDDPPLFAKDLSDYAKAFYSDTYEVLDRFFWTHDSSAGVLVHYDKPTNGHHYLLGTLTQMVSAPPYIINATDAMLLESCLEQFSANVRARPAQPVTRLDQCYHLRWGAQYVGEDSLTYRLGVLSLLATNGYQLARPIPRQLTNRWLSSFVSQIMSDGVNETPLWPQERYVQIAYDSPSVVDGATQYGYVRKNQLRLGMRISALQSLSDTPSPVQWLPQYTIDQAAMDEGDLMVSRLTQLPLRPDYGNIWVGDALSYYVDYNRSHRVVLSSELPQLPDTYFDGDEQYGRSLFSLARKIGDRSLVKDTAVLKHAYQAIDPNTGKEYLRSRQSVAYFGASAGHSGADQPLVIEPWIQGKISGVPPPSSVRQFGYDVARGAIVDLARPFPSGDYQFVYSDVDQVVDGHDDLSISSGLVESLLSSCMHATAPGGSFVVKINFPTRPVWHYIEQKILPNITSYMLIKPFVTNNVELFFVAFGVHQHSSLTWTSGVYFFLVDHFYRYETLSTISRQLPSFGYVDDGSSVTGIETISIENPGFSNMTQAARIGISGLCANVGNARKSIAIYESHGARVLTITSRRSPASARRKSRLRYLPLIDPRSLEVQARTILPADPVLFENVSGASPHVCLTMMYNFEVSSAVYDGDVVLDLGTGPEAKILELIPATSPVTCVDIRPTAQPSGCWNVRTTFLELDYLSDGWITGVRGDIVTCMLSLGAAAAGKSMTFDAAFQQLIKVLSKSTANVVLVQVNCPTDVVRSIKGYLEIDSTNKRYRFPKFGRDEPYSDMDALEKICRTAWPNCSITWVPLSYDLRWTRLALLESTTLSSASIRIAELMYKYMPIMRIDIHGLPMEKRGNFIVGQNCSLVIPGFNAQDVFNCYFNSALAFSTEDVNAAMIPQVSAQFDATKGEWTLDMVFSDAGIYTMQALVGSNANPVSLGSFVVDSPDVDITDAWPAQLDFTIAGTDVDITVNPYYRLMTFVRIDGQWQIANPDKFQFFSSASGTLVMNVKLDIADKYLLYYIRDVQSRDVGFYIQHPLQLLNTITLPTNEDLFLSAPDMREWAVKESGNTICILNSQGFVLPQDWDVLTDTISWSPSIPTYIVPPGDYTLTPL
notes: mRNA capping protein λ2 of mammalian reovirus serotype Dearing 3, native in the virus particle; 60 copies forming 12 pentameric turrets; also called capping enzyme λ2; turret
B4: capsid shell protein (CSP) λ1 (natural protein)
chain: MKRIPRKTKGKSSGKGNDSTERADDGSSQLRDKQNNKAGPATTEPGTSNREQYKARPGIASVQRATESAEMPMKNNDEGTPDKKGNTKGDLVNEHSEAKDEADEATKKQAKDTDKSKAQVTYSDTGINNANELSRSGNVDNEGGSNQKPMSTRIAEATSAIVSKHPARVGLPPTASSGHGYQCHVCSAVLFSPLDLDAHVASHGLHGNMTLTSSDIQRHITEFISSWQNHPIVQVSADVENKKTAQLLHADTPRLVTWDAGLCTSFKIVPIVPAQVPQDVLAYTFFTSSYAIQSPFPEAAVSRIVVHTRWASNVDFDRDSSVIMAPPTENNIHLFKQLLNTETLSVRGANPLMFRANVLHMLLEFVLDNLYLNRHTGFSQDHTPFTEGANLRSLPGPDAEKWYSIMYPTRMGTPNVSKICNFVASCVRNRVGRFDRAQMMNGAMSEWVDVFETSDALTVSIRGRWMARLARMNINPTEIEWALTECAQGYVTVTSPYAPIVNRLMPYRISNAERQISQIIRIMNIGNNATVIQPVLQDISVLLQRISPLQIDPTIISNTMSTVSESTTQTLSPASSILGKLRPSNSDFSSFRVALAGWLYNGVVTTVIDDSSYPKDGGSVTSLENLWDFFILALALPLTTDPCAPVKAFMTLANMMVGFETIPMDNQIYTQSRRASAFSTPHTWPRCFMNIQLISPIDAPILRQWAEIIHRYWPNPSQIRYGAPNVFGSANLFTPPEVLLLPIDHQPANVTTPTLDFTNELTNWRARVCELMKNLVDNQRYQPGWTQSLVSSMRGTLDKLKLIKSMTPMYLQQLAPVELAVIAPMLPFPPFQVPYVRLDRDRVPTMVGVTRQSRDTITQPALSLSTTNTTVGVPLALDARAITVALLSGKYPPDLVTNVWYADAIYPMYADTEVFSNLQRDMITCEAVQTLVTLVAQISETQYPVDRYLDWIPSLRASAATAATFAEWVNTSMKTAFDLSDMLLEPLLSGDPRMTQLAIQYQQYNGRTFNIIPEMPGSVIADCVQLTAEVFNHEYNLFGIARGDIIIGRVQSTHLWSPLAPPPDLVFDRDTPGVHIFGRDCRISFGMNGAAPMIRDETGLMVPFEGNWIFPLALWQMNTRYFNQQFDAWIKTGELRIRIEMGAYPYMLHYYDPRQYANAWNLTSAWLEEITPTSIPSVPFMVPISSDHDISSAPAVQYIISTEYNDRSLFCTNSSSPQTIAGPDKHIPVERYNILTNPDAPPTQIQLPEVVDLYNVVTRYAYETPPITAVVMGVP
notes: capsid shell protein λ1 of mammalian reovirus serotype Dearing 3, native in the virus particle; 120 copies in each particle as λ1A/λ1B dimers; five pairs (1-5) around each vertex; also called λ1A; λ1B

Biological target: the molecule itself
Experiment: cryo-EM structure; asymmetric (C1) vertex sub-particle reconstructions of native MRV ISVP at 3.3 Å, asymmetric full ISVP at 4.3 Å; isolated virus particles in PBS pH 7.4; proteins assembled in the particle, in situ

B1 and B2 are the same in “stoichiometry N” value: 3 for the first, 3 for the second.

Compared with B3, B4 is lower in “stoichiometry N” value: 5 for the first, 2 for the second.
